From US20140087993A1 (TUFTS MEDICAL CENTER, published 2014)
* marks the point of attachment. Palmitoyl = CCCCCCCCCCCCCCCC(=O)*

T1: protease-activated receptor 1 (PAR1), on cells (human, UniProt P25116 42-425)
T1 sequence (looked up): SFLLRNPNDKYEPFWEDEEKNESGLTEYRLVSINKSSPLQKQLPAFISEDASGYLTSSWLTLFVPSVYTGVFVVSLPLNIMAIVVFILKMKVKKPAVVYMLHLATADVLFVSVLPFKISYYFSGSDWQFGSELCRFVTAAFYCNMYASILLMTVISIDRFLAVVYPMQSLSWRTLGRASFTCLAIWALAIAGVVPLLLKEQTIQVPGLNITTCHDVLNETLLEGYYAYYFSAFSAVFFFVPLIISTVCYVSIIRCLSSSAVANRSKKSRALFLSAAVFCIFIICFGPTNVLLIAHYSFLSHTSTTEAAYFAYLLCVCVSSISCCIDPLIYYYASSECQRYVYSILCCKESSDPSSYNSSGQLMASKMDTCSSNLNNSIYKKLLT


How the values were obtained:
[1] = target: protease-activated receptor-2 (PAR2), wild type, on cells (human, UniProt P55085 37-397); assay: cell-based or functional assay
[2] = target: T1, protease-activated receptor 1 (PAR1), …; assay: cell-based or functional assay

IC50, Ca++ mobilization by SFLLRN in human platelets [2] [µM] | IC50, thrombin-induced ERK1/2 phosphorylation in A549 cells [2] [µM] | calcium flux in SW620 cells, antagonist activity against SLIGRL [1] [% inhibition] | Binder | further results
– | – | – | Palmitoyl-GDENSEKKRKQAIK-NH2 (SMILES CCCCCCCCCCCCCCCC(=O)NCC(=O)N[C@@H](CC(=O)O)C(=O)N[C@@H](CCC(=O)O)C(=O)N[C@@H](CC(N)=O)C(=O)N[C@@H](CO)C(=O)N[C@@H](CCC(=O)O)C(=O)N[C@@H](CCCCN)C(=O)N[C@@H](CCCCN)C(=O)N[C@@H](CCCNC(=N)N)C(=O)N[C@@H](CCCCN)C(=O)N[C@@H](CCC(N)=O)C(=O)N[C@@H](C)C(=O)N[C@H](C(=O)N[C@@H](CCCCN)C(N)=O)[C@@H](C)CC) [P2pal-14GQ] | IC50, calcium flux induced by 30 µM SLIGRL in SW620 cells [1]: 8000 µM
0.7 | 0.8 | – | Palmitoyl-NRSKKSSALF-NH2 (SMILES CCCCCCCCCCCCCCCC(=O)N[C@@H](CC(N)=O)C(=O)N[C@@H](CCCNC(=N)N)C(=O)N[C@@H](CO)C(=O)N[C@@H](CCCCN)C(=O)N[C@@H](CCCCN)C(=O)N[C@@H](CO)C(=O)N[C@@H](CO)C(=O)N[C@@H](C)C(=O)N[C@@H](CC(C)C)C(=O)N[C@@H](Cc1ccccc1)C(N)=O) [P1pal-10S] | –
0.55 | 0.2 | – | Palmitoyl-KKSRALF-NH2 [P1pal-7] | –
– | – | 29 | Palmitoyl-RSSAMDENSEKKRKQAIK-NH2 (SMILES CCCCCCCCCCCCCCCC(=O)N[C@@H](CCCNC(=N)N)C(=O)N[C@@H](CO)C(=O)N[C@@H](CO)C(=O)N[C@@H](C)C(=O)N[C@@H](CCSC)C(=O)N[C@@H](CC(=O)O)C(=O)N[C@@H](CCC(=O)O)C(=O)N[C@@H](CC(N)=O)C(=O)N[C@@H](CO)C(=O)N[C@@H](CCC(=O)O)C(=O)N[C@@H](CCCCN)C(=O)N[C@@H](CCCCN)C(=O)N[C@@H](CCCNC(=N)N)C(=O)N[C@@H](CCCCN)C(=O)N[C@@H](CCC(N)=O)C(=O)N[C@@H](C)C(=O)N[C@H](C(=O)N[C@@H](CCCCN)C(N)=O)[C@@H](C)CC) [P2pal-18Q] | –
1.3 | – | – | Palmitoyl-ILKMKVKKPAV-NH2 (SMILES CCCCCCCCCCCCCCCC(=O)N[C@H](C(=O)N[C@@H](CC(C)C)C(=O)N[C@@H](CCCCN)C(=O)N[C@@H](CCSC)C(=O)N[C@@H](CCCCN)C(=O)N[C@H](C(=O)N[C@@H](CCCCN)C(=O)N[C@@H](CCCCN)C(=O)N1CCC[C@H]1C(=O)N[C@@H](C)C(=O)N[C@H](C(N)=O)C(C)C)C(C)C)[C@@H](C)CC) [P1pal-i1-11] | –
– | – | 77 | Palmitoyl-RSSAMDENSEKKRKSAIK-NH2 (SMILES CCCCCCCCCCCCCCCC(=O)N[C@@H](CCCNC(=N)N)C(=O)N[C@@H](CO)C(=O)N[C@@H](CO)C(=O)N[C@@H](C)C(=O)N[C@@H](CCSC)C(=O)N[C@@H](CC(=O)O)C(=O)N[C@@H](CCC(=O)O)C(=O)N[C@@H](CC(N)=O)C(=O)N[C@@H](CO)C(=O)N[C@@H](CCC(=O)O)C(=O)N[C@@H](CCCCN)C(=O)N[C@@H](CCCCN)C(=O)N[C@@H](CCCNC(=N)N)C(=O)N[C@@H](CCCCN)C(=O)N[C@@H](CO)C(=O)N[C@@H](C)C(=O)N[C@H](C(=O)N[C@@H](CCCCN)C(N)=O)[C@@H](C)CC) [P2pal-18S pepducin] | –
